Data as given in PMC6582412.

How the values were obtained:
[1] = system: LrAgo (Limnothrix rosea IAM M-220); assay: competition
[2] = system: LrAgo (Limnothrix rosea IAM M-220); assay: double-filter binding; conditions: 5'-phosphate

Sequence	Kd ([1]; 5'-hydroxyl)	Kd [2]	Kd ([1]; 5'-phosphate)
GTTAGACTTTAAGTCAAT [18 nt 5'-OH guide DNA (G-guide)]	0.0456 nM		
GTTAGACTTTAAGTCAAT [18 nt 5'-P guide DNA (G-guide)]		0.0348 nM	0.0333 nM
